Data published in the supplement of paper PMC9170038.

Tested on: MS2 coat protein
Assay: apparent KD of MS2 coat protein; higher = weaker reporter binding
Conditions: Eterna round: R107
Experimental: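 RNA-MaP round R107: designed RNA switches with theophylline, tryptophan, arginine or FMN aptamers are transcribed on-chip within common flanks. They are titrated with SNAP-549-labelled MS2 coat protein in RNA-MaP buffer (100 mM Tris pH 7.5, 80 mM KCl, 4 mM MgCl2), without ligand or with the indicated ligand. Median apparent KD per design.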

[1] = input ligand: theophylline 20 uM
[2] = input ligand: tryptophan 2.4 mM
[3] = input ligand: theophylline 2 mM

Sequence | apparent KD of MS2 coat protein (input ligand: arginine 13.2 mM) [nM] | apparent KD of MS2 coat protein [1] [nM] | apparent KD of MS2 coat protein [2] [nM] | apparent KD of MS2 coat protein (input ligand: none) [nM] | apparent KD of MS2 coat protein [3] [nM]
AGUGUUAUAACUGAUACCAGACUCUCAUGUUUACAUGAGGAUCACCCAUGUUAUUUCUUUGUCCCUUGGCAGCAGAAUUUACACA [JR_SSTheophyB_Sub009] | 142 | 298 | 343 | – | –
ACAUGAGGAUCACCCAUGUGAAGGCACGAUACCAGCUGAUCCCGUGGCCCUUGGCAGCGUCCGGUUUGGUCCGGCGGAUGAGACG [azamullin] | 19.6 | 36.4 | 23.5 | – | –
UAUGCACAUGAGGAUCACCCAUGUAUGGAAGGAGCGGUGAAUGAACCAGGUAGGUCGCCAUGGUGAGGAUCAUCUAUGUAAUCGU [Exclusion - Arginine A (Freestyle 7)] | 38.9 | 117 | 86.8 | 86 | 128
GAUUGGUAUAGAAGGAGCGUCGAAAAUGGGUAAACAUGAGGAUCACCCAUGUAAAGGGAACGACAGGUAGGUCGCUAUAUUAAUC [AstromonsSSArgB#30] | 146 | 256 | 200 | 174 | 272
AUUGUGAAGUCGGCCGCCACUGCAUAGUUUAACCUCUUUUAACAUGAGGAUCACCCAUGUAAUGACAGGACCGGGACAAUAGUAA [JR_SSTryptoB_Sub022] | 54.3 | 92.3 | – | – | 79.7
CCGACGAUGACCAAAGGUCAGGAGUGCGCACGAGGACCGGUACGGCCGCCACUCGAGGAGUGGGACAUGAGGAUCACCCAUGUAA [X-TryptA-ms2@65-1] | 23.9 | 29 | 21.8 | 22.4 | 20.6
UUCAGACAUGAGGAUCACCCAUGUACUGAAGGAGCGGAUAAAUAUCCAGGUAGGUCGCAGUAUUGAGGGUCUACUUCCAGUCUUA [Rexeesqu] | 11.7 | 12.9 | 10.1 | 9.36 | 10.4
UUCUGGACCCGUGAUACCAGAGACAUGAGGAUCACCCAUGUACAUGAGGAUCACCCAUGUCUCCCUUGGCAGCACUGCAGGGAGC [Exclusion Theophylline B GF 14] | 45.4 | 169 | 133 | – | –
UGUAUGGACUGAAGGAGCGCCUCAAAAUAACAUGAGGAUCACCCAUGUGGCGAAAGCCUUGGGCAGGUAGGUCGCAGUCCAUACU [ArgBX 1 #StaticStem] | 62 | 76.2 | 52.9 | 49.9 | 72.1
GGAUAGGACACGGCCGCCACUGCCUAGGAUACUAGCAACAUUUGGGUACAUGAGGAUCACCCAUGUAGGACCGGGUGUCCUAUCG | 38.5 | 70.9 | – | – | 70.3
AAGACGGUCGGAAGGAGCGGUACAUGAGGAUCACCCAUGUACUCCUGGGCAUCCGUAGUGUGCCAGGUAGGUCGCCGAUUGCGGG [XArg-B14] | 12.8 | 22.9 | 15.3 | 12.8 | 16.6
GACAUGAGGAUCACCCAUGUACCGCGAGAAGGAGCGCGGAUAAACGCAGGUAGGUCGCUCGUGGGCUUUUAUUCAAUCGAAAGCU [Zaesar] | 26.8 | 106 | 48 | 50.5 | 165
GCACCAGGUACGGAUACCAGAAUUUGCCAAUUGGGUGAACAUGAGGAUCACCCAUGUUAUUUCCCUUGGCAGCCGUACCUGGUGC [ETB NP+V+V2 #10] | 8.88 | 13.2 | 9.45 | – | –
ACAUGAGGAUCACCCAUGUGUCCUCGAAAACGAGGACCGGUACGGCCGCCACUCGAAAUAAGCGACAAGCGAAAAGCUUGUCGCA [Mat - Exclusion - Trytophan A - D22] | 57.6 | 194 | 406 | 113 | 135
CUCCCGUGGUCGGCCGCCACUGGAGGCCUUGCGCGACAUGAGGAUCACCCAUGUUGGCCCGGCGUCAGGACCGGGAUCGCGUGAG [#1 Same State - Tryptophan B Attempt #10 (HarryS)] | 8.86 | 18.8 | 10.1 | 14.4 | 12.2
UUUUAACAUGAGGAUCACCCAUGUAAUGAUACCAGAGACGAAAGUCUCCCUUGGCAGCAUAAUCAUUACAUGAGAUGGAAACAUC [Theophylline A 7] | 29.2 | 48.5 | 17.5 | – | –
UCGAAUGCGGCGGCCGCCACUCGCGGAUAACGAUAGCUUAACAUGAGGAUCACCCAUGUGUCAUGGAGGACCGGGCCCAUACCGU [azamullin] | 19.7 | 36.1 | – | – | 26.6
